Where “and” joins values, the source holds several entries; their conditions need not be identical. Identical values can stand only once. Like-named read-outs stand apart in the source and are kept apart here. Blank lines part the entries; values can stand above or below the binder they belong to.
How the values were obtained:
[1] = target: T1, cytoplasmic domain-lacking human NR10 on CHO cells (hNR10-expressing CHO cells) (human, UniProt Q8NI17 20-553); test: FMAT competition on hNR10-expressing CHO cells: antibody titrated against FMAT Blue-labeled hIL-31; FL1 = cell-bound labeled hIL-31; mean±S.D. (n=3)
T1 construct: also called NR10-expressing cells
T1 sequence: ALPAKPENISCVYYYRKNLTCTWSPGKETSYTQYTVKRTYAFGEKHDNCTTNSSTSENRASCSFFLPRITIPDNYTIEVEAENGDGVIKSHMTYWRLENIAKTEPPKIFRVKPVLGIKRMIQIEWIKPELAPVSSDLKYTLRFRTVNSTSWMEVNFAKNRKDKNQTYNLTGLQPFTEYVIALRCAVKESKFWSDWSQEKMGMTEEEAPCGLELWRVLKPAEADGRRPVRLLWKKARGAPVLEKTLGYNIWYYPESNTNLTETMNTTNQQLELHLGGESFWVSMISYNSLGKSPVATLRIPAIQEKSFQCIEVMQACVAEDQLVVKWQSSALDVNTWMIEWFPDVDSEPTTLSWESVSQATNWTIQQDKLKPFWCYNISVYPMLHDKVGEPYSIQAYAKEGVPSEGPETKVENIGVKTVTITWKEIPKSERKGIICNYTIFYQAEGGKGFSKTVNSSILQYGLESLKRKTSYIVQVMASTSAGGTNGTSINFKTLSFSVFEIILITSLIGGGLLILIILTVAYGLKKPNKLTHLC
Experimental: (§1) Antibodies were assessed for the activity of inhibiting the IL-31/NR10 binding by using hNR10-expressing CHO cells as described below. The chimeric NS22 antibody and NS22_H0L0 (H chain, H0-SKSC/SEQ ID NO: 54; L chain, L0/SEQ ID NO: 56) were diluted at an appropriate concentration using Assay buffer (10 mM HEPES, 140 mM NaCl, 2.5 mM CaCl₂, 3 mM MgCl₂, 2% FBS, 0.01% NaN₃, pH7.4), and further eight serial dilutions were prepared at a common dilution ration of 2. The dilutions were added at 40 μl/well to plates (96-Well FMAT Plates, Applied Biosystems). Then, FMAT Blue-labeled hIL-31 was diluted 400 times with Assay buffer, and added at 20 μl/well. Finally, a cell suspension adjusted to 2.5×10⁵ cells/ml using Assay buffer was added at 40 μl/well (final 1×10⁴ cells/well). Two hours after addition of cells, the fluorescence (FL1) was measured using the 8200 Cellular Detection System (Applied Biosystems).
Each variant was tested for the activity of inhibiting the hIL-31/hNR10 binding by using FMAT. The test was carried out according to the method as described in Example 4.

[2] = target: T2, rhNR10 (recombinant human NR10) (human, UniProt Q8NI17 20-519, limits assumed); test: SPR, Biacore T100; antibody captured on Protein A, rhNR10 as analyte
T2 construct: also called IL-31 receptor; IL31RA
T2 sequence: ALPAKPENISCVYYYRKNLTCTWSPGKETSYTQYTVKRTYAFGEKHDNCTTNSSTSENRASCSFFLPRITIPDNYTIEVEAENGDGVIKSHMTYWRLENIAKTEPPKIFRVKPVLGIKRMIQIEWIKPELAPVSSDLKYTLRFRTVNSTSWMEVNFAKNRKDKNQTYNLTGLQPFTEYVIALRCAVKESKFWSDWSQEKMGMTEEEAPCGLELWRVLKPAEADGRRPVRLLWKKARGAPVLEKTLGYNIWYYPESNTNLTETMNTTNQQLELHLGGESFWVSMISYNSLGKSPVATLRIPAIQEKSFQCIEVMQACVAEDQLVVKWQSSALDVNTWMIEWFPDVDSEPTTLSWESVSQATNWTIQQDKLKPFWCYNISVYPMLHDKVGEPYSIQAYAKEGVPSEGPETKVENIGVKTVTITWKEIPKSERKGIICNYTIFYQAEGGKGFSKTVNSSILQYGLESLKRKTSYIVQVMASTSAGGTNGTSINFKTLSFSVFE
Experimental: (§2) Kinetic analysis of the antigen-antibody reaction was carried out using Biacore T100 (GE Healthcare Biosciences). The antigen-antibody interaction was measured by immobilizing rec-Protein A (hereinafter Protein A) (ZYMED) onto a sensor chip, capturing an antibody on the immobilized Protein A, and then reacting the antigen as an analyte. Various concentrations of rhNR10 were used as the antigen. The kinetic parameters, association rate constant kₐ (1/Ms) and dissociation rate constant kd (1/s), were calculated from the sensorgrams obtained by the measurement. Then, KD (M) was determined based on the rate constants. Each parameter was determined using Biacore T100 Evaluation Software version 1.1 (GE Healthcare Biosciences).
(§3) The running buffer used was HBS-EP+. Each antibody was prepared at 0.25 μg/ml, or prepared so that about 100 RU would bind to Protein A. rhNR10 used as an analyte was prepared at 0, 38.5, 77.0, and 154 nM, or at 0, 19.25, and 77.01 nM using HBS-EP+. In the measurement, first, the antibody solution was captured on Protein A, and an analyte solution was reacted at a flow rate of 20 μL/min for three minutes. Then, the solution was switched to HBS-EP+, and the dissociation phase was measured for five minutes. After measurement of the dissociation phase, the sensor chip was regenerated by washing with 10 mM glycine-HCl (pH 1.5). The obtained sensorgrams were kinetically analyzed using the Biacore-specific data analysis software, Biacore T100 Evaluation Software Version 1.1.

[3] = target: T1, cytoplasmic domain-lacking human NR10 …; test: FMAT competition on hNR10-expressing CHO cells: antibody titrated against FMAT Blue-labeled hIL-31; FL1 = cell-bound labeled hIL-31
Experimental: (§4) Human IL-31 (R&D Systems) was labeled with FMAT Blue Monofunctional Reactive Dye (Applied Biosystems). 100 μl of hIL-31 prepared at 0.5 mg/ml using 50 mM sodium phosphate buffer (pH 8.0) was mixed with 5.25 μl of 25 nmoles FMAT Blue dissolved in DMSO (Junsei). After vortexing, the mixture was allowed to stand at room temperature for 15 minutes. The FMAT Blue-conjugating reaction with hIL-31 was terminated by adding 5 μl of 1 M Tris-HCl (pH 7.4) and 1.1 μl of 10% Tween20, and then FMAT Blue-labeled hIL-31 and unreacted FMAT Blue were separated by gel filtration using Superdex 75 (GE Healthcare, 17-0771-01) column with 0.1% Tween20/PBS developing solution.
as §1

[4] = target: T2, rhNR10 (recombinant human NR10); test: SPR, Biacore T100; antibody captured on Protein A, rhNR10 as analyte; remark: listed apart in the source
Experimental: as §2, §3

[5] = target: T2, rhNR10 (recombinant human NR10); test: as above; remark: listed apart in the source
Experimental: as §2, §3

[6] = target: T1, cytoplasmic domain-lacking human NR10 …; test: FMAT competition on hNR10-expressing CHO cells: antibody titrated against FMAT Blue-labeled hIL-31; FL1 = cell-bound labeled hIL-31; remark: listed apart in the source
Experimental: as §4
NS22 and NA633 (the constant region of each is γ1, κ) were diluted at an appropriate concentration using Assay buffer (10 mM HEPES, 140 mM NaCl, 2.5 mM CaCl₂, 3 mM MgCl₂, 2% FBS, 0.01% NaN₃), and then seven serial dilutions were prepared at a common dilution ratio of 2. The dilutions were added at 40 μl/well to plates (96-Well FMAT Plates; Applied Biosystems). Then, FMAT Blue-labeled hIL-31 was diluted 400 times with Assay buffer and added at 20 μl/well. Finally, cell suspensions adjusted to 2.5×10⁵ cells/ml using Assay buffer were added at 40 μl/well (final 1×10⁴ cells/well). Two hours after addition of cells, the fluorescence (FL1) was determined using the 8200 Cellular Detection System (Applied Biosystems).

[7] = target: T1, cytoplasmic domain-lacking human NR10 …; test: FMAT competition on hNR10-expressing CHO cells: unlabeled chimeric antibody titrated against 8.8x10^-2 µg/ml FMAT Blue-NS22; FL1 = cell-bound labeled NS22
Experimental: The antibody NS22 purified from a hybridoma culture supernatant was labeled with FMAT Blue (Applied Biosystems, 4328853). 170 μl of NS22 prepared at 1 mg/ml in PBS was mixed with 17 μl of 1 M NaHCO₃ solution and 3.4 μl of FMAT Blue (17 nmoles) dissolved in DMSO. After vortexing, the mixture was allowed to stand at room temperature for 30 minutes. The FMAT Blue conjugating reaction with NS22 was terminated by adding 8 μl of 1 M Tris-HCl (pH 7.4) and 1.9 μl of 1% Tween 20, and then FMAT Blue-labeled NS22 (FMAT Blue-NS22) and unreacted FMAT Blue were separated by gel filtration using Superdex 75 (GE Healthcare, 17-0771-01) column with 0.01% Tween20/PBS developing solution.
Each antibody was examined for inhibition of the binding of the prepared FMAT Blue-NS22 to hNR10-expressing CHO cells (Referential Example 3) using the 8200 Cellular Detection System (Applied Biosystems, 4342920). The chimeric anti-NR10 antibodies (the constant region of each is γ1, κ) were added at various concentrations to each well containing 7500 cells and 8.8×10⁻² μg/ml FMAT Blue-NS22. The cells were allowed to stand in the dark for four hours, and then the fluorescent signal from FMAT Blue bound to the cells was measured. […] The fluorescence value FL1, which represents the binding of FMAT Blue-NS22 to NR10-expressing cells, was reduced with the increase in the concentration of antibody NS22 or NS23.

- IC50 (read off the curve) [1]: ~0.1 µg/mL
- Kd [2]: 3.3 nM
- koff [2]: 0.0012 s⁻¹
- kon [2]: 370000 M⁻¹ s⁻¹
- IC50 (read off the curve) [3]: ~0.1 µg/mL
- Kd [4]: 3.2 nM
- koff [4]: 0.00091 s⁻¹
- kon [4]: 290000 M⁻¹ s⁻¹
- Kd [5]: 3.2 nM and 5.1 nM
- koff [5]: 0.00062 s⁻¹ and 0.00074 s⁻¹
- kon [5]: 190000 M⁻¹ s⁻¹ and 150000 M⁻¹ s⁻¹
B1: humanized NS22 H0L0 with constant region SKSC (H0L0-SKSC) (antibody)
heavy: QVQLVQSGAEVKKPGASVKVSCKASGYTFTGYIMNWVRQAPGQGLEWMGLINPYNGGTSYNQKFKGRVTITADESTSTAYMELSSLRSEDTAVYYCARDGYDDGPYTMDYWGQGTLVTVSSASTKGPSVFPLAPSSKSTSESTAALGCLVKDYFPEPVTVSWNSGALTSGVHTFPAVLQSSGLYSLSSVVTVPSSNFGTQTYTCNVDHKPSNTKVDKTVERKSCVECPPCPAPPVAGPSVFLFPPKPKDTLMISRTPEVTCVVVDVSHEDPEVQFNWYVDGVEVHNAKTKPREEQFNSTFRVVSVLTVVHQDWLNGKEYKCKVSNKGLPAPIEKTISKTKGQPREPQVYTLPPSREEMTKNQVSLTCLVKGFYPSDIAVEWESNGQPENNYKTTPPMLDSDGSFFLYSKLTVDKSRWQQGNVFSCSVMHEALHNHYTQKSLSLSPGK
light: DIQMTQSPSSLSASVGDRVTITCRTSENIYSFLAWYQQKPGKAPKLLIYNAKTLAKGVPSRFSGSGSGTDFTLTISSLQPEDFATYYCQHHYESPLTFGGGTKVEIKRTVAAPSVFIFPPSDEQLKSGTASVVCLLNNFYPREAKVQWKVDNALQSGNSQESVTEQDSKDSTYSLSSTLTLSKADYEKHKVYACEVTHQGLSSPVTKSFNRGEC

- binding result [3]: binds
B2: humanized NS22 H1L0 (H1-SKSC / L0) (antibody, V domains shown)
VH: QVQLVQSGAEVKKPGASVKVSCKASGYTFTGYIMNWVRQAPGQGLEWMGLINPYNGGTSYNQKFKGRVTITADKSTSTAYMELSSLRSEDTAVYYCARDGYDDGPYTMDYWGQGTLVTVSS
VL: DIQMTQSPSSLSASVGDRVTITCRTSENIYSFLAWYQQKPGKAPKLLIYNAKTLAKGVPSRFSGSGSGTDFTLTISSLQPEDFATYYCQHHYESPLTFGGGTKVEIKR

- binding result [6]: binds
B3: chimeric NA633 (human gamma1, kappa) (antibody, V domains shown)
VH: DVQLRESGPGLVKPSQSLSLTCTVTGYSITSDYAWNWIRQFPGNKLEWMGYISYSGSTSYNPSLKSRVSITRDTSKNQFFLQLNSVTTEDTATYYCAPMITTDWFFDVWGAGTTVTVSS
VL: DIVMTQSPATLSVTPGDRVSLSCRASHDISDFLHWYQQKSHESPRLLIKYASQSISGIPSRFSGSGSGSDFTLSINSVEPEDVGVYYCQNGHSFPWTFGGGTKLEIK
notes: Mouse variable regions with human constant regions (H chain gamma1)

- IC50 (read off the curve) [7]: ~0.5 µg/mL
- IC50 (read off the curve) [3]: ~0.1 µg/mL
B4: chimeric NS22 (human gamma1, kappa) (antibody, V domains shown)
VH: EVQLQQSGPELVKPGASMKISCKASGYSFTGYIMNWVKQSHGKNLEWIGLINPYNGGTSYNQKFKGKATLTVDKSSSTAYMELLSLTSEDSAVYYCARDGYDDGPYTMDYWGQGTSVTVSS
VL: DIQMTQSPASLSASVGETVTITCRTSENIYSFLAWYQQKQGKSPHLLVYNAKTLAKGVPSRFSGSGSGTQFSLKINSLQPEDFGSYFCQHHYESPLTFGGGTKLEIK
notes: also called chimeric NS22 antibody; the chimeric antibody

- IC50 (read off the curve) [7]: ~0.5 µg/mL
B5: chimeric NS23 (human gamma1, kappa) (antibody, V domains shown)
VH: EVQLQQSGPELVKPGTSMKISCKASGYSFTGYIMNWVKQSHGKNLEWIGLINPYNGGAEYNQKFKDKATFTVDKSSSTAYMELLSLTSEDSAVYYCARDGYDDGPYTMDYWGQGTSVTVSS
VL: DIQMTQSPASLSASVGETVTFTCRANENIYSYLAWYQQKQGKSPQLLVYNAKTLAEGVPSRFSGSGSGTQFSLKINSLQPEDFGSYYCQHHYGTPPTFGGGTKLEIK

Source: patent US20110129459A1 (Chugai, published 2011)
